Earlier results, collected in PMC8508939.

Molecular target: FoxP1 forkhead domain (Homo sapiens) (UniProt Q9H334)

Substance: FoxP1 forkhead domain (from UniProt Q9H334)
- Kd: 27 µM
